Source: article PMC9430930

Each sequence was assayed on NupR (NagR2) (Bacillus thuringiensis BMB171), ORF:032de0b7 (assay: EMSA). Conditions: NupR: 10 mM Tris-HCl pH 7.5, 50 mM NaCl, 0.5 mM DTT, 4% glycerol, 200 ng poly(dI-dC), 25 C 30 min, ComK/CcpA/PurR: 10 mM Tris-HCl pH 8.0, 50 mM KCl.

Sequence | binding
CGCATTTCAATTATTCGACCTCTGATGTAAGACTTCTTTTCTCTTTTTTCAACTTACAACATAGTACAAATGACTAAACACCAAAATAAGTGTAATTGTCGAATAAATAATAATAATTTTTTAAAATAAAATTTTCACTCTTTATTGCATAAAAAAAACTTTGCACCATAAACATTCCTCATTTCGAGAAAAAGTTCGGCACAAAGATCCTTTACATCCTTTGTTACACACTTTTCCCCTCATAGTCTAGCAATTCATGGTTGCC (double strand) [nagR2 (nupR) promoter] | binds
CTAATACAACACGGTTAATACCTTTTTTCATTTCAAAATTCCTCGCAATTTCATTGATTTTATTATGTAAGATAATACGTCTTACTTCTATAGAGTCATATCTAGTTTATTACATTTTATAAAAGATATTCAAGTATTTGAAAATGTATCCGTGCAAATCCGCGAACAAAACATAGGAATTCAGTGAACCGAATATAATTCAGTAAAATCCTTTGTAAAAGGGGAAATGGCATGG (double strand) [ldh promoter] | binds
GGTGAAATAGTATGGTCATCACGTAATAAAGTATCATCTAAATCTAAAACAATCATTTTATAAGTCATATAGAAAATTCCTTTCTTTAATTGAAATCAAAATACATGTTCATGAAGATGTTGAGGAATAATAGTAAGACATCAAACCTCTTTGAAAAGAAGTAGATAAATTATTATGAGTTGTTGCTCATAATATTGGTTAATAATCATTGGGGAAGAATAAAACCCCAATGATTAAAGTTTGATTTTATCGTAACAACTCTAAAGGTAGAGTGCAATAATGGAAGTT (double strand) [had promoter] | binds
TGCATACTTACTCACCATCCCATTAGAACAATCTAATTTTTTGAGTTGTCATACCACTACAATAATGTGAATTCGACAATTTTTGATATGAAATAATGCATAATATATATAAAATTCGGCAAATTTTTCATACAATTCATCTCACATACAATAATAGATTAGGAGTGTTATAGATGAATTATAG (double strand) [baci promoter] | binds
